Experimental data taken from patent publication US20220411504A1.

Target: Human CD3 epsilon (CD3ε) of the T cell receptor complex on cells (human) (UniProt P07766)
Test: flow cytometry on Jurkat cells, 10 nM antibody

Chain of Human CD3 epsilon (CD3ε) of the T cell receptor complex on cells (human) (P07766 23-207 limits assumed, one chain of several): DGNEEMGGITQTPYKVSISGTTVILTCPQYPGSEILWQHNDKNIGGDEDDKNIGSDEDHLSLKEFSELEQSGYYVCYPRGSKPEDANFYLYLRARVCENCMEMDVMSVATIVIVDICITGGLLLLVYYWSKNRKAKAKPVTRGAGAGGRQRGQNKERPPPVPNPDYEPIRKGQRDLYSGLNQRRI

Substance UCHT1 (antibody) has an MFI (arbitrary units) of 89200.
